{"source": "paper PMC4694764", "about": "(Molecular Biology of the Cell, 2016)", "binders": {"B1": {"name": "GFP-Rab13 (expressed in L6-GLUT4myc muscle cells) (natural protein, UniProt P51153 1-203, looked up)", "chain": "MAKAYDHLFKLLLIGDSGVGKTCLIIRFAEDNFNNTYISTIGIDFKIRTVDIEGKKIKLQVWDTAGQERFKTITTAYYRGAMGIILVYDITDEKSFENIQNWMKSIKENASAGVERLLLGNKCDMEAKRKVQKEQADKLAREHGIRFFETSAKSSMNVDEAFSSLARDILLKSGGRRSGNGNKPPSTDLKTCDKKNTNKCSLG"}}, "target": "GST-MICAL-L2-ACT (aa 261-1009) (mouse, UniProt Q3TN34 261-1009)", "sequence (Q3TN34 261-1009)": "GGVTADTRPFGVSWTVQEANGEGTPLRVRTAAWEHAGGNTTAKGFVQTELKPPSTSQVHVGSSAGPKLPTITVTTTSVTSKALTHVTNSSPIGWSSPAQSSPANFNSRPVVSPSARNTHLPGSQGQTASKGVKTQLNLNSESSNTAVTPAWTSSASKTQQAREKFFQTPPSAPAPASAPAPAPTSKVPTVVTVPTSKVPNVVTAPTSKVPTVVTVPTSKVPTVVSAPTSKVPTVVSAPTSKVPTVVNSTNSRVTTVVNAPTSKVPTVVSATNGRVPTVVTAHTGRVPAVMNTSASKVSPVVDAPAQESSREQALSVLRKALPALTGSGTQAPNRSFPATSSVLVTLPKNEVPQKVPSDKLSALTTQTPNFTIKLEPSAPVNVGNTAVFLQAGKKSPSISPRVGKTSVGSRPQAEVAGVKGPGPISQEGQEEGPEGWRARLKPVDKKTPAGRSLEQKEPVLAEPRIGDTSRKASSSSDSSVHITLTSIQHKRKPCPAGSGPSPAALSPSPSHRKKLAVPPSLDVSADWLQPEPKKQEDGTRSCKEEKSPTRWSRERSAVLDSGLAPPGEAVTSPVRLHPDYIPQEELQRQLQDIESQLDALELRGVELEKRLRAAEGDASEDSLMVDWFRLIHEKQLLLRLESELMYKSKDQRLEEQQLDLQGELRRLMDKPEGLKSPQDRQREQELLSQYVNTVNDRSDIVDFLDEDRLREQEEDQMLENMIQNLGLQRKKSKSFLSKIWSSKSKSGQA", "experiment": "pull-down", "data": [{"binder": "B1", "values": [{"measurement": "fold of pull-down, lysates of insulin-stimulated against basal cells", "result": "~2", "unit": "fold"}]}]}
